In US20160040149A1, “Compositions Having Dicamba Decarboxylase Activity and Methods of Use” (priority 2013, published 2016):

B1: 2 (protein, listed as Serratia sp.)
chain: MAKIICLEEHTLDKALVMASMPAALEQAPFLSDWGKTVTDGNLPDRSRPQIEKNDLINIKGADIGRGRLDDMDVAGITMQVLSVGGFPHLISAAEGVDLNRAANDRLADAVNAHPDRFAAFATLPWAQPDSAEKELERAVKELGFKGALLNGRPSTHFLDHPDYDGLLARFNALGVPLYLHPGLPVRSVQQAYYGGFSDEVTARLSMFGWGWHHEAGIHLLRLILSGAFDKYPNLQVISGHWGEMLPFWLQRLDDSLPQAATGLRRTIAQTFKEQVYVTPSGMLTLPHFQFIYALLGAERIIFSVDYPYQTLDGVKAFIQSLPVPEEAKEAIAFRNAERLLGLTS
B2: 3 (protein, listed as Lactobacillus plantarum)
chain: MAKLITVEEHFESAAVTAAMRQAVGNAVLPAVSPALRQYMRDNLPSPAIMQDTQHERLAFMAQYGIDMQVLSYGNSSPQNLSPEQAVPLSQLANDELAKAVVAHPDRYAGLAVLPVGDPQAAVAELNRAVTTLGLRGVLLKGNYQNKFFDEPFFLPIFEAAAALDVPVYFHPSFIPQAVTSHYFESNQWSDVVTGILSSAGYGWHMDVGIQVIRMIASGIFDKLPGLKLISGHWGELVPLFLERLDDELTTYTDLQYPFSTYYRHNVYVTPSGILSAPQLQFMLAEMGADHLMYSIDYPYKQPETSGSFLDIADLTDEQRAQIAFGTATTLFKL
B3: 77 (protein)
chain: MALIDLHAHAPHPGYYNQHPHWGPFFERHEDGDVKLRVGDWILTLGSPERKALVRAGKGPTVEEYQARWADPKVRLAGMDAAGQNAQVVSVPSHCYMYWAEKEFSVPFATKVNDTFAEYCSAAPDRLMFWAHAALNAPEQAALELRRACTELGAKGLVAGGANFGGLEFDSPELDPVWKVLCDLDLPMFIHGYNQSVTWGKKANDDRYETTAIVGMQYDETRCFWNLVCGGVLDRFPGLKVYITHGGGYVPYQLGRLAQCNGNLDVAHNKKPVLEYLKNNFYFDVELHEVPMRQALIDIIGADRVLYGSNFGGSDAVRHDLTEGLRLSDDDLQKIRWKNACKLLHLDPAKIGEPAKKQAVSA
modifications: Burkholderia xenovorans
B4: 75 (protein, listed as Ectocarpus siliculosus)
chain: MAKIDSYTHFACPAFMDHLEAESGHPMVFRGLFSSIPELSDIDLRIRYMDEHGIDVHCLVPLPWLECEPGLHADEGKALEACRIANDEMARVVARFPDRLIGVALIPTTTEQAMIQETTRAVKELGMAGVALFVGPTAKPPDMACFEGLYRTCEELGAVVWMHPCRPQSYADYDSYKGEGSKHQIWNTFGWIYDTSVAMVHIALAGVFRRYPGLKVVTHHHGAMVPFFTARFDTQRRNFQEVEGDDLLEDLRLFYCDTATFGESAANIQQAIDFFGKSQVLFGTDTPMDMGTRGMFTRTTIASVEALGAAPEDKESFYAGNVLDMLGERFAGISGARGAVAARPKGDSTRIAASL
B5: 62 (protein)
chain: MAVGGKNFRDVTDQVWCPKKRIEDMDREGVDIQVLSPIPVTFSYWAKPEEAESMARIQNDFIAETVLAYPDRFVGLGTVPMQDGETAIREMERCITELNLHGIEIGTNVNGKNLDDPSFIEFFRMAEKWQVPIFIHPWETLGRDRMPHHNFMYTVGMPSETALAAATLIWSGIMEKFPRLKVCFAHGGGSFPYILPRLDQGWKVWPHLRLTTHPPSYYAKKFYFDSLNYDPINLKYMIERFGHEKIFMGSDYPFLLREVDPGKVIDETASLSEEQKAAMLGGNAAEFLNIDIKKRGVAYAESTNT
modifications: Bacillus thuringiensis serovar pulsiensis
B6: 68 (protein, listed as Hoeflea phototrophica)
chain: MAIIDAHTHTLCPAVNEKVAGTIKPDSVPYQRDMSPESKEQDHTQFPELKIMFNQVERRLADMARMGIDRQVIAPAPGQQHYWAEPKLLAEISALQNDHVAELVARAPDRFAGIGTLPMTDPDAAVAEITRATRELGLRVFQIDSRVMERELSDASLDPIYAALEAAGAGLMIHPLGFSNGERLTPFFMVNSVAQPLEELLAFNHLVFGGVLDRFPKLKVYIAHGGGFAPFYIGRFDHAWKVRPEVNRLTPSAPSTYLRRIYFDTCVYRTDHIETLVRTVGADRVMLGSDYPFDMGDTDPLGLLNACQGLSDDEKATISSKVAIDFFGLET
B7: 71 (protein, listed as Burkholderia dolosa)
chain: MARAGHRAARTRQSRPGDRTMTCSCCMSAGRRRVLGAFAALAGAPKGPRAASAAQPAAASKPTRGDATARNRHSRALLPGKASASWSATKASGSGGAFAWDDTTFTFRTPAGGLGPLPMKFIDVDARLRDMDASGVDVQALSLSVPMAYWGDRPFNAKLARAWNTAASRVHVRAPDRFVVLATLPMLDATDAIDELERASELPGVRGVYMGTNIDNRDLDDPRFAPVFARIEQLGLPVFLHPQQTVGGARLGDFYLSNLLGNPFDTAIAASHLILGGVLDRHPALHFTLPHAGGALPILVGRLDAGWTVRAETRRLAHQPSGYLRRFSYDTVSHSGPVLNFLIENVGIDRLVLGSDYCFDMGYEQPVRFLDRLDLTPDERAMVIGGNAGRLLRI
B8: 72 (protein)
chain: MADCPCCVSPKRRRLLGSVSAIAAGMMAGLPALAAQPSTAAAGTGKPLSIDIHAHYYSESFLGLLGGEGKQFGGHFFRNDDSFTFQTPAGGLGPLPMKFIDVEQRVRDMDNSGVDVQAISLSVPMVYWADRTLNAKLARAWNTAASDVHRKHPTRFVVLATLPMLNANDAIDELEFAAGLPGVRGIYMGTNINNRDLDDPLFSPIFKRIEQLNLPIFLHPQQTVGGARLADFYLSNLLGNPFDTAIAASHLILGGVLDKYPALHFSLPHAGGALPILVGRIDAGWSMRSETKRVAQKPSSYLRRFSYDTISHSGPTLDFLIRNIGADRLVLGSDYCFDMGYEQPVRFLDRLALPDDQKRMVVGGNAARLLNL
modifications: Cupriavidus necator
B9: 76 (protein, listed as Polymorphum gilvum)
chain: MAKKIDIFNHIWPEPFFKALIAHIGEMTDITMRSGAVPMMTNLDRRFEVMDMFGPDYMQVLSLASPPLEKLADPAKALELSRIGSDSLAELCQRYPERFPAFIGTAPLSNPAAVVGECRRAIEDLGAAGMQIFTNVAGKPLDLAEFEPFFEYMASAGKPVWLHPARGEAFADYQTEKRSEYEIWWTFGWPYETSAAMARLVFSRMFDKYPGLKVITHHAGGMVPFFEGRVGPGWDQMGARTTDRDLAAVRKALKRPHLDYFKEFYADTASFGSRKAIEHAIEFFGEDRVLFASDAPFDPEGGPMYIRETMRCIDSLDLTDAQRRKIYHGNATALLGLSL
B10: 61 (protein, listed as Gordonia amarae)
chain: MATGAGSGVPSPADRVIVRSPGVIDVHAHAVLPMSLGCAGAAGPEIGYREDGSPFFRVGEYVLNGVRYEGSAFMDPEVRVAAMDAAGIGLQMISPNPITYFTRLDARSATDYARAHNDAIAEAAGRHPGRLVGAAQLPMQDVPAAIAELERSVRELGLVAAYIDTDIGDRTLDAPELDDFYSAAVELDVPVFIHPSPVGQEGPPDDTRLRRFDLDLLLGFSYDETLAVAALVFGGVLERHPALDVCLSHGGGTLAFVAGRFARAVAKPRAWVPEFLVENGIESYLRRLWLDTHVHSAGSLRLLIDTVGTDRLVFGTNFAGWDADGATEVDALGDLRETTTANAAHLLRLGRA
B11: 64 (protein, listed as Achromobacter piechaudii)
chain: MAIQKIDMHAHFFPPITRQEAAALDPVNAPWLRPDADGATGQIMAGEREFRPVDATLWDPALRIEQMDRHGVDVQILCATPIMFGYTYPARPAADWAARMNDLALEHCAYAPSRLKALAQVPLQDLELACQEASRARAAGHLGVQIGNHVGPRDLDDETLVQFLIHCANNDIPVLVHPWDMMTDGRMKKWMLPWLVSMPAETQLGILSLILSGAFERIPRSLKLCFAHGGGSFAYLLGRVDNAWRHRDIIRQDCPQLPSSYTDRFYTDSAVFDPRSLRLLIDVMGEDRVLLGSDYPYPLGEQEVGRLVAHAELVPEVQQKILFRNTMTFFGLQPGLQPGLQS
B12: 70 (protein, listed as Alicyclobacillus acidocaldarius)
chain: MAIEPNRAADVHTHFLPTEVLEFLKREPRIQVDLERRAPDKEPFLTVEGRWSFELKRMFVDFEAFASAYRQAGIGLALVSPLPQLFVYHLPAEMGAQVAEVYNDALRDVLAPHRERFRPLATLPLADPTAAARELERRMDEGFVGAIVGPGVGEALIGDEAFWPLWEVADARRAVLFLHPLLHADPRAARLMLPNLVGVPWETTLAAAHLVLSGLLDRYPGARVLLAHGGGFLPYQIGRIEQGYDVWPQVRGRLQDRPTAYLRRMFYDNVLWSDAALRCLIDVVGADRVLAGSDFPFDLSAWPPRPGADVSVLAGGSGREGRLS
B13: 74 (protein, listed as Ramlibacter tataouinensis)
chain: MATVIDVHTHMFTTKWLELLKKEGGQYNIQTRPDGQQEIFRGNTPVVIPQKGHFDWKLRIQHMDQAGIDVSVVSLTCPNVYWGGEDVSVRAAREANDNVAQAQTAYPDRIRWFASLPWEYMATVIDVHTHMFTTKWLELLKKEGGQYNIQTRPDGQQEIFRGNTPVVIPQKGHFDWKLRIQHMDQAGIDVSVVSLTCPNVYWGGEDVSVRAAREANDNVAQAQTAYPDRIRWFASLPWEYPQRAVEELERSCAQGAAGVMVLANVAGRSLTDPLFAPVWAEIDRRALPVLVHPTDPPGVDLMDMTKFDLSWSVGFMFDTTLAITRMIFEGFFDRYPNLRIIASHGGGTLPYLVGRFEKGDEVELASRRQMKRKPTDYLRHIHYDCITYNLGALQYLISVVGAGQVMFGTDWPHWVHDTRGAFANTAQLPQEQTRAVRGANAQRLFKL
B14: 69 (protein, listed as Microbacterium testaceum)
chain: MATSTEGQDVTDVHAHLLMPGLHAEVERRVPDEVQAAADLELRRNGLASLQASGRMIGERFPRLTDVRARLAAMDEQGVDRQWVSPSPNHFYPWANEGLATWASGEANRLIAEHVALAPDRLVGLGVVPLQHPHLVVDALDDAVLGRGLAGVEISSFAGDVELSDERLESFWARAAELRAVVFLHPFGCSLDERLDRFYLSNTVGQPTENAVALSHLIFSGVLDRHPGLRLIAAHGGGYLPTAIGRSDRAWRVRPEARGCAHAPSTYLSKLWFDTVVHDERALRWLVEAAGADRVLLGSDFPFDMGLDDPVAFVRGAGLQDAEVSGILGGNAAELLRTRVHA
B15: 73 (protein, listed as Sphaerobacter thermophilus)
chain: MARIDAHAHAQPPEYLDALLASGRYESVRDAEGRIVVRERGSRFLTITPQMHHPEQRVAEMDEAGIDMQILSVTTPQVYFLQGQAAVDLARRCNDYLADIVRSYPTRFRALASVPLTADPDAAVREFVRCLDDLGMVGAIIGSNIDGRPIDDPAFDAFYAEADRRATTLFIHPMVPAGIEVMNPYALAPLVGFMFDTTLAVSRLIFSGFFERYPRVKVLVGHLGAAVPYLAGRLDIGWRSYSDCQGIPHPPTEYIRRLYLDTVSFHAPALRCALETVGPDRIVFGSDYPHVIGDVGGAIASIQQALPATTHDGVLGHTAAELFGVSA

Experiment: Saturation mutagenesis of SEQ ID NO:109: dicamba decarboxylation activity of point mutants (CO2 released), fold of backbone (Tables 7, 8, Megatable 1)
Settings: decarboxylation activity (CO2 released) of point mutant vs unmutated backbone protein; backbone SEQ ID NO: 109

Molecule	Fold Activity
B1	1.1 fold
B2	0.9 fold
B3	1.3 fold
B4	1.7 fold
B5	1 fold
B6	1.3 fold
B7	1.5 fold
B8	1.2 fold
B9	1.1 fold
B10	2.4 fold
B11	1.8 fold
B12	1.7 fold
B13	1.4 fold
B14	1.3 fold
B15	1.2 fold
